Assay results as given in patent US20260201008A1, “SECRETIN-DERIVED GLP1R SELECTIVE AGONISTS” (GUBRA A/S, priority 2023, published 2026).
Numbered stars: 1 amine (or outer) side, 2 acyl side, 3 side chain; on linkers, the order of the positions; unused ones are H or OH. Square brackets hold non-standard residues; d marks the D form. Side chains are listed from the residue outwards. Ends that are not written are not given here. * marks the point of attachment. C20 diacid = O=C(O)CCCCCCCCCCCCCCCCCCC(=O)*; γGlu = O=C(O)[C@H](CCC(=O)[*:2])N[*:1]; AEEA = NCCOCCOCC(=O)O; Aib = CC(C)(N)C(=O)O

Legend:
[1] = biological target: human GLP-1 receptor (hGLP1R) (human, UniProt P43220 24-463); test: cell-based or functional assay
[2] = biological target: human secretin receptor (hSCTR) (human, UniProt P47872 23-440); test: cell-based or functional assay
human secretin receptor (hSCTR), sequence (P47872 23-440): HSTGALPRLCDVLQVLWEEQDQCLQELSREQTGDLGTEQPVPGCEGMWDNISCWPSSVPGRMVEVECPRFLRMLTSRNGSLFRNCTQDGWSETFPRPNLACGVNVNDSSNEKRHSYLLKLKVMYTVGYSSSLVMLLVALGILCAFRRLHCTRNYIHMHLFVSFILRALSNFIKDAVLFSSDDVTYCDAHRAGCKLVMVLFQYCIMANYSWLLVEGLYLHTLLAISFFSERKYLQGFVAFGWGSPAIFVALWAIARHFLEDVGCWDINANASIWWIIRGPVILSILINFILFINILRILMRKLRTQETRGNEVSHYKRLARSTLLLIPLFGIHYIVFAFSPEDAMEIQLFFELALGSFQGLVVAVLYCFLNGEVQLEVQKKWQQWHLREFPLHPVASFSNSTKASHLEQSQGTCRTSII

Binder | pEC50 hGLPR1 [1] | pEC50 hSCTR [2]
H[Aib]EGTFTSDVSRLK([AEEA-AEEA-γGlu-C20 diacid])ETAA[Aib]QRFLEHLV-NH2 [SEQ ID NO: 85] | 9.9 -log M | 5.8 -log M
H[Aib]EGTFTSDVSFLK([AEEA-AEEA-γGlu-C20 diacid])EFAAAQRFLEHLV-NH2 [SEQ ID NO: 84] | 10.1 -log M | 5.4 -log M
H[Aib]EGTFTSDVSTLK([AEEA-AEEA-γGlu-C20 diacid])ELAA[Aib]QRFLEHLV-NH2 [SEQ ID NO: 79] | 10 -log M | 5.5 -log M
H[Aib]EGTFTSDVSRLK([AEEA-AEEA-γGlu-C20 diacid])EEAAQQRFLEHLV-NH2 [SEQ ID NO: 73] | 11.2 -log M | 7.1 -log M
H[Aib]EGTFTSDVSFLK([AEEA-AEEA-γGlu-C20 diacid])EEAAQQRFLEHLV-NH2 [SEQ ID NO: 83] | 10.5 -log M | 5.8 -log M
H[Aib]EGTFTSDVSFLK([AEEA-AEEA-γGlu-C20 diacid])E[Aib]AASQRFLEHLV-NH2 [SEQ ID NO: 74] | 10.2 -log M | 4.9 -log M
H[Aib]EGTFTSDVSRLK([AEEA-AEEA-γGlu-C20 diacid])ELAAAQRFLEHLV-NH2 [SEQ ID NO: 9] | 10.2 -log M | 6 -log M
H[Aib]EGTFTSDVSELK([AEEA-AEEA-γGlu-C20 diacid])E[Aib]AATQRFLEHLV-NH2 [SEQ ID NO: 82] | 11 -log M | 7 -log M
H[Aib]EGTFTSDVSYLK([AEEA-AEEA-γGlu-C20 diacid])ELAAAQRFLEHLV-NH2 [SEQ ID NO: 86] | 9.7 -log M | 5.4 -log M
H[Aib]EGTFTSDVSELK([AEEA-AEEA-γGlu-C20 diacid])ELAATQRFLEHLV-NH2 [SEQ ID NO: 80] | 10.7 -log M | 6.1 -log M
H[Aib]EGTFTSDVSELK([AEEA-AEEA-γGlu-C20 diacid])EFAASQRFLEHLV-NH2 [SEQ ID NO: 8] | 10.3 -log M | 5.8 -log M
H[Aib]EGTFTSDVSTLK([AEEA-AEEA-γGlu-C20 diacid])EEAA[Aib]QRFLEHLV-NH2 [SEQ ID NO: 77] | 10.7 -log M | 5.8 -log M
H[Aib]EGTFTSDVSYLK([AEEA-AEEA-γGlu-C20 diacid])EFAAQQRFLEHLV-NH2 [SEQ ID NO: 76] | 10.1 -log M | 5 -log M
H[Aib]EGTFTSDVSRLK([AEEA-AEEA-γGlu-C20 diacid])E[Aib]AAAQRFLEHLV-NH2 [SEQ ID NO: 81] | 10.1 -log M | 7.1 -log M
H[Aib]EGTFTSDVSYLK([AEEA-AEEA-γGlu-C20 diacid])EEAASQRFLEHLV-NH2 [SEQ ID NO: 75] | 10.6 -log M | 5.5 -log M
H[Aib]EGTFTSDVSTLK([AEEA-AEEA-γGlu-C20 diacid])ELAAEQRFLEHLV-NH2 [SEQ ID NO: 78] | 10.3 -log M | 5.4 -log M
